Assay results from patent publication US20190255093A1.

Experiments:
[1] = target: murine proMyostatin (mouse) (UniProt O08689); assay: method not stated
[2] = target: latent myostatin in serum and muscle of mice (mouse) (UniProt O08689); assay: cell-based or functional assay

Substance | Kd [1] | latent myostatin signal in muscle (fluorescent western blot, normalized to total protein, compared to WT mice) [2]
SRK-015 (antibody) | 8.35 nM | 
muSRK-015 (antibody) | 2.57 nM | 
muSRK-015P (antibody) | 2.88 nM | 3 fold
